Results published in article PMC4227725 (Journal of the American Chemical Society, 2014).

Columns and labels:
HeLa cells [1] = details: 2.5 μM, 30 min, 37 °C, heparin washes, phenol red-free medium
HeLa cells [2] = details: Tat polymer 2.5 μM, chymotrypsin 1 μM, up to 14 h

Row | Substance | fluorescence in live cells, Z-stack 1 μm slices (in words) (HeLa cells [1]) | cell entry after incubation with chymotrypsin, time course (in words) (HeLa cells [2])
1 | GSGSG [GSGSG polymer] | no fluorescence was seen | 
2 | YGRKKRRQRRR [Tat polymer] |  | retains the ability to enter cells
